According to patent US20170137895, “METHODS OF IDENTIFYING ENZYMES AND MICROORGANISMS” (ZYMONOSTICS APS, published 2017):

T1: Mycobacterium smegmatis topoisomerase I (msTopoI) (Mycobacterium smegmatis, UniProt A0R5D9 A0R5D9:2-936)
T1 sequence: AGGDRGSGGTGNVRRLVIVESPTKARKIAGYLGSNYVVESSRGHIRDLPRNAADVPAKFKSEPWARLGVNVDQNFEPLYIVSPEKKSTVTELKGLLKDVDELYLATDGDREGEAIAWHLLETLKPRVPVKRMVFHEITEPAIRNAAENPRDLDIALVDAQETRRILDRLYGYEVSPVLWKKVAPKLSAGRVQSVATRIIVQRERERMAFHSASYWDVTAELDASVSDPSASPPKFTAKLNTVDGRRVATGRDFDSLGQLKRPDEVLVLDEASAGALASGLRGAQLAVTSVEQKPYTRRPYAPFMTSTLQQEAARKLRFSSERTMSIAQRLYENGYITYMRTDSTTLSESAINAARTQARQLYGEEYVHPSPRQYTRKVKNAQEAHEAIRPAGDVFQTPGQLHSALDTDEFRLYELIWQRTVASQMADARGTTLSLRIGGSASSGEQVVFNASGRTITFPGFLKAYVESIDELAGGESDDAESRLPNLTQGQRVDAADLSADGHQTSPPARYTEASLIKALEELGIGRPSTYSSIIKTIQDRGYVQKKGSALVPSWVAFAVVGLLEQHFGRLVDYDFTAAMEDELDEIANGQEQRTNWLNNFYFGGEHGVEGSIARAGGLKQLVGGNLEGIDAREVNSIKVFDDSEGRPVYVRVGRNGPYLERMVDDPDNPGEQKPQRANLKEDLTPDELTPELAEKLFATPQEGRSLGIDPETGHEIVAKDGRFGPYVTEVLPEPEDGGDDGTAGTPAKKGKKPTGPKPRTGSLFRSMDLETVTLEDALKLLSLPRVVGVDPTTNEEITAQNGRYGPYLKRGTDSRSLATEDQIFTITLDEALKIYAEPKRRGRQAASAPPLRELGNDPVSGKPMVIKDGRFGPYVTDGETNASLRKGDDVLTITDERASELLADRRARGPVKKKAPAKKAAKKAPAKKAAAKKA


Legend:
[1] = target: T1, Mycobacterium smegmatis topoisomerase I …; test: ligation of SEQ:16 oligo to substrate; binding in 1 mM EDTA, 300 mM NaCl, 37 C, then 5 mM MgCl2; no numeric result given
Procedure: Prepare a solution containing msTopol as well as 10 mM Tris-HCl (pH 7.5), 1 mM EDTA, and 300 mM NaCl. Add 5 μL to each printed area (see previous section). Incubate for 1 h at 37° C. in humidity chamber. Wash 3×5 minutes in wash buffer 4. To each printed are, add 5 μL of ligation mixture: 2 μM oligonucleotide ([Btn]CAGTGAGCGTCTGGCTGAAGCTTCCGCT; SEQ ID No: 16); 300 mM NaCl; 1 mM Tris-HCl (pH 7.5); 5 mM MgCl₂. Incubate at 37° C. for 1 h in humidity chamber. Wash for 1 min in wash buffer 2, 1 min in wash buffer 3, and 1 min in 96% ethanol. Let the slide air-dry.

HIV integrase = HIV integrase (Human immunodeficiency virus, UniProt P04585 P04585:1148-1435); test: integration of LTR into dsDNA SEQ:12/SEQ:13; MES pH 6.2, 200 mM KCl, 10 mM MnCl2, 10 mM DTT, 37 C; conditions: tags: His-tag (pTrcHis), E. coli BL21

Binder | binding result [1] | binding result (HIV integrase)
CAGTGAGCGAGCTTCCGCTTGACATCCCAATAGTTTCTCTTC (ssDNA, 3' amino-C6, immobilised on CodeLink slide) [msTopoI substrate] | binds | 
HIV LTR substrate (dsDNA, 5' amino-C6-T on both strands, SEQ:6 strand immobilised) DNA 1: TTTAGTCAGTGTGGAAAATCTCTAGCAGT DNA 2: ACTGCTAGAGATTTTCCACACTGACTAAA |  | binds
